Assay results taken from the DeepSol protein solubility set.

Assay: soluble on expression in E. coli; label from the status in PepcDB or PDB records

Soluble on expression in E. coli, not soluble:
MASLIQVRDLLALRGRMEATQISHTLHAPQPMIDAMLNQLEIMGKAVRIPEEPDGCLSGSCKSCPEGKACLREWWALR
MSPLASRALSFLGALSLLTFAATPVLAESTPTAAPPQFAVESPKAASSLLLSVAHAGKRLVAVGDRGHILLSDDDGKTWTQAKVPTRQLLTSVFFVNERKGWAVGHDAQILVSDDAGSTWARQFEDLGREAPLLDIWFADEQHGLAVGAYGALLETRDGGQHWEDVSERLDNEDQFHLNAIAAVKDNGLLVVGEAGSLFRSKDWGATWEKLEGPYEGSLFGAIGTADAGGVLVYGLRGHLFRSADFGDSWEEIPLKAASGDLEFGLSDGALLADGRIVVVGHGGSVLESTDGGRSFSVFNRPDRLSLAGVSATGDGHLILVGQGGVHLAAANGAALEQQQLEHHHHHH
MGSDKIHHHHHHMSLIHLQADHIRPLVYLHGKVDDHEVAFLEHLNGPPKNAVRVGNTVTFIEHDQTAYSVRAERIQGVLPPAFAGVISDLESGYQFVLGGRSRLAGRPSQLVRIIPNDDNRYSYQVWLDMDTYLPLRYDMLNLEKQLLEQVLVVELIVLDDAPAILREAYKQDWPEIMPQPQREQADNWQFKWLPQGFKILVKDNHRLIGSHEAVEYIALSDGLVNISVYVARAGETALPDELMTRNGLSLAAERVGNAEVVAVGKVPAETLSRIAKSITIE
MSLSTIEDVAKLAGLSRTTVSRVINNHPYVSDEKKKRVQLAMKHLGFVPNSAARRLRKQKTETIAVLVPRITNPFFSRFIEAIEIAASEHKYKLIICQTRYLPEKEMEYLQLLSTKQVDGIILCSLENQWEDVEPYLQHGPIVLCNEYIEEANVPTVKFDHAQGAYIAAKHVLEQGYRNLIFCRGNETKVVSQQRKMGFLRAITEKSRQVEAIDFLENAFSWEDGKRIFHEVLKDKKNPTAILAGGDEVAAGIISEAKRHDWSIPDDLAVIGFDNQILSQITEPGITTIEQPIDEMARKVVDLMMDKIHTKNYRKKELYEFELELLVKGSTMKDTMLLAEGHHHHHH
MNAFFTRALKPGARPLDETPGAILCPADGAVSQLGPIEHGRIFQAKGHGFSAQELLGGDPAMAAPFMGGEFATIYLSPKDYHRVHMPLAGTLREMVYVPGRLFSVNQTTAENVPELFARNERVVCLFDTERGPMAVVLVGAMIVASIETVWAGLVTPPKRELKTFRYDEASRTPIHLEKGAELGRFKLGSTAIVLFGPEQVKWAESLGAGSAVRMGQQLAAPAQALEHHHHHH
MGSDKIHHHHHHMSFDNLCKLLSEKHPATFASWVLGTPQTSVKVLKTELSIEPIRADYVTFLQLQGRILHLEFQTKLESTPPLPLRMLDYWVRLYRLYRLPITQVVVLLLPPAPGTVIETVFCVETTRHEYRVIRLWEENPELFLNEPALLPLAPLAATTQPQALLQQVVGKVNQLEPRQRPEISAYTQILAGLKYNQDLIRQLFREGMMRESVIYQEILAEGEQLGELRGRKAEGQLLILRQLTRRVGELPQEMLNRIETLSLEQLENLGEALLDFQAIADLEAWFGTLDIGVKMT
MIRDYKSKLEFLAFYDELTGLPNKNSLIRWLNLKVSQMDCIDTYLIFLEVRDLEKLNVTYGYDLVDELIIHISKRIKDIAGEGNKAFKIGFDRFAIICKSENISDFIERMLSQLLLPYNVNGNLIRVNFNIGAAQIENSNEAAANLMRRCDLALIKAKEEGLNEYVIFKPSIELEHHHHHH
PWDSENTIYDKVDQTKRFIEDVVKSFKQNNAILGWILTNEISLVRIPQNDNIFLRWLRELYNYIKRIDDQHLISVGDNVSPFSHNFLRPENVKGIVDYASPHIYQYDQDPIRHSIRYFMILEYDRSAGLPVILEEFG
MNDLCVDLGYKSLNKFGEQLCGDMIQVVKDDDTTILVLADGLGSGVKANILSTLTSKIISTMIAAHMGIEECVNTIMSTLPVCKVRGIAYSTFTIIKITNNTYAEIIQYDNPLVILLRNGKKYDYPTQTKIISGKKIVESKIRLNCDDVFVVMSDGAIYAGVGQTLNYGWQRENIIEFIESHYDKSLSANALTSLLIDTCNNLYANMPGDDTTIAAIKIRKRQVVNLMFGPPQNPEDVHNMMSLFFAKQGRHIVCGGTTSTLAAKFLGKELETTIDYIDPRIPPIARIEGVDLVTEGVLTISRVLEYAKDYIGKNILYNEWHSKNDGASIIARMLFEEATDINFYVGKAINPAHQNPNLPIGFNIKMQLVEELSKILKQMGKTINLSYF

Soluble on expression in E. coli, soluble:
NNESSLIEQAPIPQDGLTVAPHRAQREAVHIEKIMLKGVQRKRADKYWEYTFKVNWSDLSVTTVTKTHQELQEFLLKLPKELSSETFDKTILRALNQGSLKREERRHPDLEPILRQLFSSSSQAFLQSQKVHSFFQSISSDSLHSINNLQSSLKTSKILEHLKEDSSEASSQEEDVLQHAIIHKKHTGKSPIVNNIGTSCSPLDGLTMQYSEQNGIVDWRKQSCTTIQHPEHCVTSADQHSAEKRSLSSINKKKGKPQTEKEKIKKTDNRLNSRINGIRLSTPQHAHGGTVKDVNLDIGSGHDTCGETSSESYSSPSSPRHDGRESFESEEEKDRDTDSNSEDSGNPSTTRFTGYGSVNQTVTVKPPVQIASLGNENGNLLEDPLNSPKYQHISFMPTLHCVMHNGAQKSEVVVPAPKPADGKTIGMLVPSPVAISAIRESANSTPVGILGPTACTGESEKHLELLASPLPIPSTFLPHSSTPALHLTVQRLKLPPPQGSSESCTVNIPQQPPGSLSIASPNTAFIPIHNPGSFPGSPVATTDPITKSASQVVGLNQMVPQIEGNTGTVPQPTNVKVVLPAAGLSAAQPPASYPLPGSPLAAGVLPSQNSSVLSTAATSPQPASAGISQAQATVPPAVPTHTPGPAPSPSPALTHSTAQSDSTSYISAVGNTNANGTVVPPQQMGSGPCGSCGRRCSCGTNGNLQLNSYYYPNPMPGPMYRVPSFFTLPSICNGSYLNQAHQSNGNQLPFFLPQTPYANGLVHDPVMGSQANYGMQQMAGFGRFYPVYPAPNVVANTSGSGPKKNGNVSCYNCGVSGHYAQDCKQSSMEANQQGTYRLRYAPPLPPSNDTLDSAD
VSGREPSSRIIRVSVKTPQDCHEFFLAENSNVRRFKKQISKYLHCNADRLVLIFTGKILRDQDILSQRGILDGSTVHVVVRSH
MIDHALALTHIDERGAARMVDVSEKPVTLRVAKASGLVIMKPSTLRMISDGAAAKGDVMAAARIAGIAAAKRTGDLIPLCHPLGLDAVSVTITPCEPDRVKILATTTTLGRTGVEMEALTAVSVAALTIYDMCKAVDRAMEISQIVLQEKSGGRSGVYRRSASDLACQSR
SNAMKESNHLMDTPYSYLIRSIGMKLKTSADARLAELGLNSQQGRMIGYIYENQESGIIQKDLAQFFGRRGASITSMLQGLEKKGYIERRIPENNARQKNIYVLPKGAALVEEFNNIFLEVEESITKGLTKDEQKQLMSILIKVNRSM
MRDLKGIFSALLVSFNEDGTINEKGLRQIIRHNIDKMKVDGLYVGGSTGENFMLSTEEKKEIFRIAKDEAKDQIALIAQVGSVNLKEAVELGKYATELGYDCLSAVTPFYYKFSFPEIKHYYDTIIAETGSNMIVYSIPFLTGVNMGIEQFGELYKNPKVLGVKFTAGDFYLLERLKKAYPNHLIWAGFDEMMLPAASLGVDGAIGSTFNVNGVRARQIFELTKAGKLKEALEIQHVTNDLIEGILANGLYLTIKELLKLEGVDAGYCREPMTSKATAEQVAKAKDLKAKFLS
GPGSMLRLSLRRWCAAAASGSSTSTAHGSPPATTLPDFYGKSFSVSPRAWAQITRKNSEEGFTNDARYLRLAIDSGGCHGYVYKFSFEKNDEFSCEGDVAIAEVDAVSPSDEAFTGAQPSPRVVVDTLSASKLANATLDYHSELKGSAFVVVGNELVDESCACAMSFSMRKTTRQSVASSSSARGASSGDGGGHGGSGAAAPPAGSSLAANARPISRRSTTRATS
MKKWVCTVCGYIYDEDAGDPDNGISPGTKFEELPDDWVCPLCGVGKDQFEKLED
MRCPGCGAAIQFDDPKKPGYIPREVFEKRLEEGKEILCQRCFRMKHYGKLEPVEFDWDFKNQLKSYLGGFDVVVWVIDIFDFEGTYREDIAEILKGKRVIYVINKIDLLPRAVTVKEIKEWVKKRIKTKNTDDIRIVSAEKNFGLTSLVKYLSRLTDKALVVGVTNVGKSSLLNKICTHENTISPFPGTTLGILKRKVKEANLYLYDTPGIMTSDRILDLLDPECQKRVLPREELSRKTFKPDNGRTIFMGGLCRFDIHFETEKNPIFLLFSSKEVTFHETRRERADELMRNRLGDLLIPPCSKTKFENFKWKRETFTLKEGEELAVAGLGWMSVRRGPFTVEVTVPDSVKLVVREALVNPKRLEHHHHHH
MKLAKLIPKRFFIRSKDRSTVSKSPTAFSFGSASSSSGQDCKNSGGDGGGGSVTPTSILPEVPSPYSYVEILQAFKLIDRDNDGAVSRHDLESLLSRLGPDPLTEEEINVMLKEVDCDGDGTIRLEELASRVVSLDPARDSTELKETFEFFDADRDGLISADELLRVFSTIGDERCTLDDCKRMIADVDEDGDGFVCFTEFSRMMDLQR
SNAMTTKRVKKMGKEEMKEMFDLVIYAFNQEPTAERQERFEKLLSHTQSYGFLIDEQLTSQVMATPFQVNFHGVRYPMAGIGYVASYPEYRGEGGISAIMKEMLADLAKQKVALSYLAPFSYPFYRQYGYEQTFEQAEYTIKTEDWPRVKRVPGTIKRVSWADGKEVIKDVYLENQRAHSGGVIRETWWLDYTLNRASKPNNQAIYYSSEGKAEGYVIYRIAAGTFEIVEWNYLTNTAFKALAGFIGSHSGSVQSFHWINGFAGKDLNDLMPTPAASVKILPYMMARIVELQTFLEKYPFQSGEKETYSLEIEDSYGPWNEGIWTITIDEQGKATVTKGAAEKEGTAALKADIQTWTQLFLGYRSAETLSFYERLQGDATIAQRLGQRLVKGMPILEDYF
MIKMIDQYQAFTQSPIGKFVVKNLGLPSPVVLDRFESGQPVIKGAVLMGAAPSSSLTSGIAQVLSNIHADSYAGNNAEIQQAAAQVGLNLRAFNSGDKESKFKAVVFDASGIQNSEQLDELYKFFNPIVRQIESSGRVIVLGTSPESAKTVKQAIAQRALEGFIKSVGKEFKKGITAQVVYVDEGAVNNIESTLRFLLSPRSAYVSGQVIRVSKAEVVQVDWDKPLAGKTALVTGASRGIGEAIAHVLARDGAHVICLDVPQQQVDLDRVASEIGGSALGLDITAADAGEKIKAAAAKQGGLDIIVHNAGITRDKTLANMKSELWDLVININLSAAERINDYLLANDGLNTNGRIVCVSSISGIAGNLGQTNYAVSKAGVIGLVKFTAPILKNGITINAVAPGFIETQMTAAIPFAIREAGRRMNSMNQGGLPVDVAETISWFAATGSTGINGNVVRVCGQSLLGALEHHHHHH
MATKVYIVYYSMYGHVEKLAQEIRKGAASVDGVEAILWQVPETLQEDVLSKMSAPPKSDAPIITPNELAEADGFIFGFPTRFGMMAAQFKAFLDATGGLWRTQQLAGKPAGIFYSTGSQGGGQETTALTAITQLVHHGMIFVPIGYTFGAGMFEMENVKGGSPYGAGTFAGDGSRQPTELELGQAFHQGKYIAAISKKLKGPAAA
MQYINESATVSASNNVEKLRKQGLKIYNFGIGEPDFTTPEGIIDYAFEMAKQGKTHYTPSAGIMELREKIASKLKTRNRIDANAENVLVTPTKFGINLAMMVILNPGDEVIIPDPYYVSYPDIVKLAGGKPVPVRTTDDYDIDLDEMRKFVTPRTRAIILNNPNNPTGKVLSEKEIRDLVDFALENDIYIVSDEIYEDLIYEGSLYSPASMGKEAFEHTITLNGFSKGYAMTGWRIGYFVATEEIVEAANIIQQQTITCASSISQYAALRALDDNESPARMRSEFRKRRDLAYGILSESTDMKVHKPEGAFYMFPGYSKDIPSEKIAEMLLNQEHVVVTPGSAFGDRGRHHFRISFATSEDIIKEGLERLVKFMHTL
